Consider one molecule from patent CN113461812A (BEIJING LUFEI BIOTECHNOLOGY CO LTD, dated 2021).

What all share (test): SPR (Biacore), 1:1 binding fit
One assay concerns the target T1, RBD突变型(N501Y) (SARS-CoV-2, UniProt P0DTC2 319-541).
T1 construct: domain: RBD

The target in assay [1] is T2, RBD突变型(K417N E484K N501Y) (SARS-CoV-2, UniProt P0DTC2 319-541).
T2 construct: domain: RBD

In assay [2] the target is T3, RBD突变型(K417T E484K N501Y) (SARS-CoV-2, UniProt P0DTC2 319-541).
T3 construct: domain: RBD

B1: 人源化新冠病毒中和性抗体nCoV-00D (antibody, V domains shown)
VH: QVQLQQSGAELVKPGASVKLSCKTSGYTFTRYYIYWVKQRPGQGLEWIGEINPNNGGTNFNEKFKSKATLTVDKSSNTAYMQLSSLTSEDSAVYYCTIFITTVIARDYWGQGTLVTVSA
VL: DIVLTQSPASLAVSLGQRATISCRASESVEYSGTTLMQWFQQKPGQPPKLLIYAASNVESGVPARFSGSGSGTDFSLNIHPVEEDDVAMYFCHQSREVPWTFGGGTKLEIKR
notes: also called nCoV-00D抗体
With B1, the Kd in the assay with RBD突变型(N501Y) is 0.246 pM; in assay [1], 7.91 pM; in assay [2], 0.53 pM. In addition, the values for the koff (with RBD突变型(N501Y); in assay [1]; in assay [2]) were 9.51e-08 s⁻¹, 2.35e-07 s⁻¹ and 1.98e-08 s⁻¹, respectively. For the same molecule, the figures for the kon (with RBD突变型(N501Y); in assay [1]; in assay [2]) were 387000 M⁻¹ s⁻¹, 29700 M⁻¹ s⁻¹ and 37400 M⁻¹ s⁻¹, respectively.
